The chains are these.
B1: humanized single-domain antibody hu4811 (Fc fusion)
chain: QVQLVESGGGLVQPGGSLRLSCAASGHTPSNYAMGWFRQTPGKEREFVAAITWSAVTRDDAIPYYADSVKGRFTISRDNSKNTLYLQMNSLRAEDTAVYYCAVDASLVMTPTPRYWGQGTLVTVSS
notes: Humanized on DP-47 frameworks, original FR2 kept; Fusion partner inferred; not shown: fusion partner
B2: single-domain antibody 48-11 (Fc fusion)
chain: B1 chain with P14A, A66R, D67T, S80A, L84V, R92K, A93P, L121Q
notes: Supernatant was used in flow cytometry, Protein A purified material in Biacore; not shown: human IgG1 Fc, ligated in series to the VHH (vector Lenti-hIgG1-Fc2)
B3: humanized single-domain antibody hu4811FGLF (Fc fusion)
chain: B1 chain with T40A, E44G, R45L
notes: FR1, FR3 and FR4 replaced and T45A, E49G, R50L in FR2; Fusion partner inferred; not shown: fusion partner
B4: humanized single-domain antibody huD1 (Fc fusion)
chain: QVQLVESGGGLVQPGGSLRLSCAASGRTSTTSVMGWFRQAPGKERRFVAAITRTDDRQNDGITYYADSVKGRFTISRDNSKNTLYLQMNSLRAEDTAVYYCAAHTSLVFTPDPRYWGQGTLVTVSS
notes: Humanized on DP-47 frameworks, original FR2 kept; not shown: fusion partner
B5: single-domain antibody D1 (Fc fusion)
chain: B4 chain with P14A, A23V, A66G, D67E, S80D, L84V, R92K, A93P, L121P, S125P
notes: not shown: human IgG1 Fc, ligated in series to the VHH (vector Lenti-hIgG1-Fc2)
B6: humanized single-domain antibody huD1FGLF (Fc fusion)
chain: B4 chain with E44G, R45L, R46E
notes: FR1, FR3 and FR4 replaced and FR2 mutated; Fusion partner inferred; also called huDIFGLF; not shown: fusion partner
B7: C6 (Fc fusion)
VHH-Fc fusion chain: QVQLVESGGGLVETGSSLRLSCKSSGHSFSDYSLAWFRQAPGKEREFVAAITWSDVPRDDAVTYYRVDVKGRFTISRDNAKNTVYLQMNSLKPEDTAVYYCAVDASLVMTLTPRYWGQGTQVTVSS
notes: also called single-domain antibody C6
B8: C2 (Fc fusion)
VHH-Fc fusion chain: QVQLVESGGGLVQAGGSLRLSCVASGLTFSNYAMGWFRQGPGKDRDFVAAITRSDERQNDGVTYYRVSVKGRFTISRDNANDTVYLQMNSLKPEDTAIYYCAADPSLVFSPTLRYWGQGTLVTVSS
notes: also called single-domain antibody C2
B9: D10 (Fc fusion)
VHH-Fc fusion chain: B8 VHH-Fc fusion chain with A14P, V23A, L27F, T28S, F29L, S30N, A33V, M34I, G40A, L113P
notes: also called single-domain antibody D10

The results in this text go back to patent US20250171550A1 (NINGBO T MAXIMUM BIOPHARMACEUTICALS, published 2025).

Positions count from the first letter of the chain named. Numbers in names are those of the source.

The target of the first assay is T1, BCMA-Fc recombinant protein (human, UniProt Q02223 1-54).
T1 construct: also called human BCMA protein; BCMA protein; not shown: Fc part
T1 sequence (looked up): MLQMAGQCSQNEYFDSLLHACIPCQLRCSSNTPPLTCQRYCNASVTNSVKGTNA
The experiment in a line: SPR, Biacore 8K, CM5 chip; antibody captured by anti-human IgG (Fc), human BCMA protein as analyte (paragraph 147 describes the reverse format). The protocol:
The mouse anti-human IgG (Fc) antibody was diluted with the immobilization reagent (sodium acetate, pH 5.0): 950 μL of the immobilization reagent was added to 50 μL of the mouse anti-human IgG (Fc) antibody. The dilution was used for immobilization in eight channels. First, the surface of the CM5 chip was activated for 360 s with EDC and NHS at a flow rate of 10 μL/min. Then, the mouse anti-human IgG (Fc) antibody was injected into the channels (channels 1-8, Fc1,2) at a flow rate of 10 μL/min for about 360 s, with the level of immobilization at about 7000 to 14,000 RU. Finally, the chip was blocked with ethanolamine at 10 μL/min for 420 s.
Human BCMA protein was diluted 2-fold with the running reagent. The diluted human BCMA protein was injected into the experimental channels and the reference channels in sequence at a flow rate of 30 μL/min, and corresponding periods of association and dissociation were allowed. The association and dissociation steps were all performed in the running reagent. After each concentration analysis, the chip needed to be regenerated with magnesium chloride at a flow rate of 20 μL/min for 30 s to wash away the ligand and undissociated analyte. For the next concentration analysis, the experimental channels needed to recapture the same amount of ligand.
A KD value was calculated for each sample using Biacore 8K analysis software Biacore Insight Evaluation Software. The reference channels (Fc1) were used for background subtraction.
On the technique in general: Surface plasmon resonance follows binding to a sensor surface in real time, without labels.
Turning to B1, the Kd (commonly a measure of binding affinity in units of concentration) is 9.71 nM; the off-rate constant (koff) (commonly the first-order rate constant of dissociation) came out at 0.0698 s⁻¹; the kon – broadly, the second-order rate constant of association – is 7.19e+06 M⁻¹ s⁻¹.
In the same order, the values of B2 are 0.0379 nM, 0.0013 s⁻¹ and 3.42e+07 M⁻¹ s⁻¹.
Regarding B3, the Kd was 10.2 nM, the koff is 0.126 s⁻¹ and the kon worked out at 1.24e+07 M⁻¹ s⁻¹.
For B4, the Kd stood at 1.9 nM, the koff came to 0.0141 s⁻¹ and the kon turned out to be 7.41e+06 M⁻¹ s⁻¹.
In the case of B5, the Kd came to 0.243 nM, the off-rate constant (koff) worked out at 0.00212 s⁻¹ and the kon turned out to be 8.73e+06 M⁻¹ s⁻¹.
For B6, the Kd turned out to be 9.25 nM, the koff worked out at 0.0579 s⁻¹ and the kon was 6.26e+06 M⁻¹ s⁻¹.

The target in another assay is T2, Biotin-BCMA-Fc (human, UniProt Q02223 1-54, labelled with NHS-biotin, sites not stated).
T2 construct: also called Biotin-BCMA-Fc protein; labeled BCMA-Fc recombinant protein; not shown: Fc part
T2 sequence (looked up): T1 sequence (looked up)
Description: flow cytometry of the induced yeast single clone displaying the VHH, Biotin-BCMA-Fc and PE-streptavidin. The protocol: After two rounds of magnetic sorting were repeated, a part of the yeast was cultured and subjected to induced expression and flow cytometry assays. Another part was directly applied onto a PAD plate, and single clones were then picked and cultured, and were incubated simultaneously with Biotin-Fc and Biotin-BCMA-Fc 24 h after induced expression, with PE-Streptavidin as a secondary antibody; after incubation, flow cytometry assays were performed, and the results are shown in FIG. 3, where 14 clones are shown to bind to Biotin-BCMA-Fc.
(In general: In flow cytometry, cells or beads pass a laser one at a time.)
For B7, the “percent of cells in gate R3” value was found to be 93.3%.
Regarding B2, the “percent of cells in gate R3” value came to 98.4%.
Take B8: the “percent of cells in gate R3” value was 95.3%.
Still for that read-out and setting: then B9, with 99.8%.
As for B5, the binding result is “binds”.
